Results on two molecules are retold here after patent US20240182953, “METHODS AND COMPOSITIONS FOR DETECTING A TARGET RNA” (The Regents of the University of California, published 2024).

For one series, the target named is T1, LbuC2c2-dHEPN1/dHEPN2 (Leptotrichia buccalis, UniProt C7NBY4 SEQ:1-1159, R472A,H477A,R1048A,H1053A).
T1 sequence: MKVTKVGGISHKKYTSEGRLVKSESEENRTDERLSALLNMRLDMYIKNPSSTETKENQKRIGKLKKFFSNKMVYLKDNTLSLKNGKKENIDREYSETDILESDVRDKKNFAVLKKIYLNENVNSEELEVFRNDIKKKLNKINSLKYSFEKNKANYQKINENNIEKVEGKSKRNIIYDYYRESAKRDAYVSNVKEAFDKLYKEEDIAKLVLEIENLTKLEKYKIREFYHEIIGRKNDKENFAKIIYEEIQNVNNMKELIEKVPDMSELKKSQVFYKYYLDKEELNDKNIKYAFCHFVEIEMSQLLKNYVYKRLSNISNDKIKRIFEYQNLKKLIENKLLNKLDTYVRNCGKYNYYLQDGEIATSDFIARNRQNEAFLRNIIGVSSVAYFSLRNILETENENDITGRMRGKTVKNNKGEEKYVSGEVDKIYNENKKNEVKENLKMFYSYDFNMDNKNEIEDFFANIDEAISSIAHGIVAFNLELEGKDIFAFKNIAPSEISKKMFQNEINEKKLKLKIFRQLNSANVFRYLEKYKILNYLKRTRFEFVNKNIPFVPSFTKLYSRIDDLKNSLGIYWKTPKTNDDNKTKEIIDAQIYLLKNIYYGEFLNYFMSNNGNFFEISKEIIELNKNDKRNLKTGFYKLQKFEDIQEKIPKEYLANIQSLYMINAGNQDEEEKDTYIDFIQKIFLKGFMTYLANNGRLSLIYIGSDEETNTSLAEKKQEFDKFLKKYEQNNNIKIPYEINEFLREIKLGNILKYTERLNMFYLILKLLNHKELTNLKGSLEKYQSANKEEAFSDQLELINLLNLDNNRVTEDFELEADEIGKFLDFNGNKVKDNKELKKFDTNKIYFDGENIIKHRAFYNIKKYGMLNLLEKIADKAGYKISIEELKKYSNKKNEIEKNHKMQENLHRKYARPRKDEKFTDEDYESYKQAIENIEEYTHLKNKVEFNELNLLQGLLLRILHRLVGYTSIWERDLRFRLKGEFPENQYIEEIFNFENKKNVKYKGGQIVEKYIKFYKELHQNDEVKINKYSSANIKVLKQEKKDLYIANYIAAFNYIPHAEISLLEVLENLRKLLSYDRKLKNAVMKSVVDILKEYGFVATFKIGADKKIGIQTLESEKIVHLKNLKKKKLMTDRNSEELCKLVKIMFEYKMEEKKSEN
Description: EMSA; ssRNA A, no Mg listed in EMSA buffer, 37 C; which A variant was used not stated. The settings on record: tags: His6-MBP removed by TEV, label: 5'-32P, hairpin. As for the experimental part:
(§1) The quantified data were fit to standard binding isotherms. Error bars represent the standard deviation from three independent experiments. […] Three independent experiments were conducted as described in the Methods. The gel was cropped for clarity. c, Quantified binding data from (b) were fitted to standard binding […]. Error bars represent the standard deviation from three independent experiments. […] The quantified data were fit to standard binding isotherms. Error bars represent the standard deviation from three independent experiments. Measured dissociation constants from three independent experiments (mean±sd) were 4.65±0.6 nM (LbuC2c2-WT) and 2.52±0.5 nM (LbuC2c2-R1079A). It is of note that these binding affinities differ from panel a. This difference is accounted for in a slight difference in the 5′ sequence of the guide with panel a guides beginning with a 5′-GGCCA . . . and panel d 5′-GACCA. While the native sequence guide (5′-GACCA) binds tighter to LbuC2c2, no difference is seen in the RNA targeting efficiencies of these guide variants (Extended Data FIG. 6c).
Electrophoretic mobility-shift assays. […]
Background: A gel shift assay detects complexes by their altered migration in electrophoresis.

In another series the target is T2, LbuC2c2-R1079A (Leptotrichia buccalis, UniProt C7NBY4 SEQ:1-1159, R1079A).
T2 sequence: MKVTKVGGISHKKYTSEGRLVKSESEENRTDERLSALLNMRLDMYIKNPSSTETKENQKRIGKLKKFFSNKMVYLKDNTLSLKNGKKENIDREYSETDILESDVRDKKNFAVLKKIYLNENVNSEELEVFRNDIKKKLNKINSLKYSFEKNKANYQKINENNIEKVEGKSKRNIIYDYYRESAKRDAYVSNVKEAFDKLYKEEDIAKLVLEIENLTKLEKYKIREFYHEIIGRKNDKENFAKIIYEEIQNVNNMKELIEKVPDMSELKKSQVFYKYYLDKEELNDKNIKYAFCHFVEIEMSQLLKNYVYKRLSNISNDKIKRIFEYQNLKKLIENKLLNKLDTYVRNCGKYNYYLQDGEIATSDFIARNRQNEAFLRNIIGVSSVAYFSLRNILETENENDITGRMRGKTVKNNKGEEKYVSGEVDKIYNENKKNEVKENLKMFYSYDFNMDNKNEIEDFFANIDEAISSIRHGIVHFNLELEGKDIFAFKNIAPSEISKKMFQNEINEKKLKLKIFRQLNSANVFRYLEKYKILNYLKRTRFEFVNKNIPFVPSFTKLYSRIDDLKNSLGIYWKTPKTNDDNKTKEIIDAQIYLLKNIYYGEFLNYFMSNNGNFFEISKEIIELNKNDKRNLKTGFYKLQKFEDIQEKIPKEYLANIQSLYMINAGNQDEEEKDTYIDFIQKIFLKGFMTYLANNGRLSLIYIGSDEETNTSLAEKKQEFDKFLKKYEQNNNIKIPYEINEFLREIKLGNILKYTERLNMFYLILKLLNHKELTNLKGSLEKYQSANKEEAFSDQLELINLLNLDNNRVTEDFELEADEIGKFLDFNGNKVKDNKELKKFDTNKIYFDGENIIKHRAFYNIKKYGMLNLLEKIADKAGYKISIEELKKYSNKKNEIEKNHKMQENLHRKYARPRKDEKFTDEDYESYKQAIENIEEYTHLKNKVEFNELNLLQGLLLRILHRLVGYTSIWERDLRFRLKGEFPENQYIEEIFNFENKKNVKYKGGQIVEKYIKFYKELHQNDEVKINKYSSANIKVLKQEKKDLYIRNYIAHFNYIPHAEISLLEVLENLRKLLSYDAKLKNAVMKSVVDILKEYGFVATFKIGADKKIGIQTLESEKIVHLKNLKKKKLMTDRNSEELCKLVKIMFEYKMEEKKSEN
Description: filter; retains crRNA binding; Kd in truncated legend. As to conditions: tags: His6-MBP removed by TEV; label: 5'-32P; hairpin. As to the method: as §1
crRNA filter-binding assays. Filter binding assays was carried out in RNA processing buffer (20 mM HEPES pH 6.8, 50 mM KCl, 5 mM MgCl₂, […], 0.01% Igepal CA-630 and 5% glycerol). LbuC2c2 was incubated with radiolabeled crRNA (<0.1 nM) for 1 hr at 37° C. […]

B1: crRNA-A_GG (mature) ; target A ssRNA (ssRNA ; ssRNA)
RNA 1: GGCCACCCCAAAAAUGAAGGGGACUAAAACAGGGGCAGAGAUGAUGACCCU
RNA 2: GGCUCAUUUGCAGGGUUUAGCCAAAAGGGUCAUCAUCUCUGCCCCCUCUGCUGAUGCCCC
Usually Kd stands for the constant that tells how readily two partners part at equilibrium. For B1, in the series with LbuC2c2-dHEPN1/dHEPN2, the Kd was 1.62 nM.

B2: crRNA-A_GA (mature) (ssRNA)
RNA: GACCACCCCAAAAAUGAAGGGGACUAAAACAGGGGCAGAGAUGAUGACCCU
On to B2, for which the binding result with LbuC2c2-R1079A is recorded as “binds”.
